Molecular target: YY1;FOXP2 FHD (human?;human?, UniProt P25490;O15409 1-414;504-594, |)
Test: EMSA; FOXP2 FHD 2.5-10 uM added; large complex more intense and slightly shifted; simultaneous binding suggested; Anisotropy: 10 mM HEPES pH 7.5, 100 mM NaCl, 20 C; EMSA: 0.5 uM DNA, 20% (v/v) of binding buffer (10 mM HEPES pH 7.5, 1 mM MgCl2, 100 mM KCl, 10% glycerol, 0.1)
Conditions: protein: recombinant;recombinant; tags: N-terminal His6;His6 removed with thrombin

YY1;FOXP2 FHD, sequence (P25490 whole entry, chain 1 of 2): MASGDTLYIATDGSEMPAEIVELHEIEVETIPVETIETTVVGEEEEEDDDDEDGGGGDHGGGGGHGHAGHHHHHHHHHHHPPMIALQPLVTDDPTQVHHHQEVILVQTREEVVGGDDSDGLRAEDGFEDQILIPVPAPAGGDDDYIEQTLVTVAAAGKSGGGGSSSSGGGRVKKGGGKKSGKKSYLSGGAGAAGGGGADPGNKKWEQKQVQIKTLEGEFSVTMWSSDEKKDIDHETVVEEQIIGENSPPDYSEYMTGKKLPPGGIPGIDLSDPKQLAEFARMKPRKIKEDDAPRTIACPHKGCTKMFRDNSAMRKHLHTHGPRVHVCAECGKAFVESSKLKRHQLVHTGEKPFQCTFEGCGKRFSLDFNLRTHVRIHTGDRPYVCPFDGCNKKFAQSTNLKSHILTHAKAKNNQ
YY1;FOXP2 FHD, sequence (O15409 504-594, chain 2 of 2): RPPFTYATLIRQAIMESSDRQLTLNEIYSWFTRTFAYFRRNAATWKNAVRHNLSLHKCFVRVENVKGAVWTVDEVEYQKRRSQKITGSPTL

B1: AAV P5 DNA (dsDNA)
DNA 1: AGGGTCTCCATTTTGAAGCG
DNA 2: CGCTTCAAAATGGAGACCCT
B1: binds.
